Measurements as given in US20190144556A1 (published 2019).

Columns and labels:
[1] = biological target: T1, peptide fragment defined by residues 130-149 of SEQ ID NO: 7 within human TNFR2 (KQEGCRLCAPLRKCRPGFGV) (human); assay: peptide binding; assay not given
T1 peptide: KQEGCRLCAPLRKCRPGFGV

[2] = biological target: T2, linear peptide containing amino acids 112-139 of SEQ ID NO: 7 within human TNFR2 (human); assay: ELISA, linear peptide coated at 1 µg/well, antibody 0.1 µg/well
T2 construct: Linear peptide purchased from GenScript and coated on the plate
T2 peptide: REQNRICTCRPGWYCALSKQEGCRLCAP
Description: (§1) ELISA was also used to determine linear epitopes present on the extracellular surface of TNFR2. Linear peptides corresponding to various regions within the TNFR2 primary sequence were purchased from GenScript (Piscataway, N.J.), diluted in coating buffer and placed on Immulon 4HBX Flat Bottom Microtiter Plates (Thermo Scientific) at a concentration of 1 μg/well. Primary TNFR2 antagonistic antibodies (0.1 μg/well) were incubated with substrates. Secondary antibodies against rodent IgG were used to detect the primary antibodies. Absorbance was measured using the SPECTRAMAX® 190 Absorbance Plate Reader and analyzed with SoftMax Pro 6.3 (Molecular Devices).

[3] = biological target: T3, linear peptide containing amino acids 128-155 of SEQ ID NO: 7 within human TNFR2 (human); assay: as above
T3 construct: Linear peptide purchased from GenScript and coated on the plate
T3 peptide: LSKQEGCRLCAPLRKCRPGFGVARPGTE
Description: as §1

recombinant human TNFR2 = biological target: T4, recombinant human TNFR2 (human, UniProt P20333 23-257, limits assumed); assay: SPR (BIACORE 3000), biotinylated antibody captured on streptavidin, recombinant human TNFR2 injected
T4 construct: also called tumor necrosis factor receptor 2; full-length target protein
T4 sequence: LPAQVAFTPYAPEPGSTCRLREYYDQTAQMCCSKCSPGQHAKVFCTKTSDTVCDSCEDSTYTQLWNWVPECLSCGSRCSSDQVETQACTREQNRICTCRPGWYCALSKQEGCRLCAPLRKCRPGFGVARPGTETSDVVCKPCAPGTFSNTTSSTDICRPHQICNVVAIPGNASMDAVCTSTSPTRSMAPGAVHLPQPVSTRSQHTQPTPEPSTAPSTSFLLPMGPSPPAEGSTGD
Description: The affinities of antagonistic TNFR2 antibodies for recombinant human TNFR2 were measured using BIACORE™ Analysis Services (Precision Antibody). Briefly, the antibody was biotinylated at a 5:1 stoichiometric ratio using biotinyl-LC-LC-[…] (Thermo-Fisher) in PBS. Excess biotinylation reagent was removed by centrifugation chromatography and the biotinylated antibody was captured on 3000 RU of streptavidin surface to a level of 100 RU. […] Analysis of the kinetics of antigen binding was performed at a flow of 60 μL/min with 2 min injections. Antibodies were injected at a concentration of 1 mg/ml to the final capture of 100 RU. The instrument used was BIACORE™ 3000 with the BioCap chip (GE Healthcare). Double reference method was used for analysis. Reference channel contained the identical level of streptavidin.

B1: antagonistic TNFR2 antibody TNFRAB1 (antibody, V domains shown)
VH: EVQLQESGGGLVKPGGSLKLSCAASGFTFSSYVMSWVRQTPEKRLEWVATISSGGSYTYYPDSVKGRFTISRDNAKNTLYLQMSSLRSEDTAMYYCARQRVDGYSSYWYFDVWGAGTAVTVSS
VL: DIVLTQSPAIMSASPGEKVTITCSASSSVYYMYWFQQKPGTSPKLWIYSTSNLASGVPVRFSGSGSGTSYSLTISRMEAEDAATYYCQQRRNYPYTFGGGTKLEIKR
notes: Murine monoclonal antibody, full-length IgG; For SPR the antibody was biotinylated and captured on streptavidin; also called TNFR2 antagonist 1
fold greater affinity than for the peptide fragment defined by residues 48-67 of SEQ ID NO: 7 (…, SEQ ID NO: 18) [1]: 40 fold
binding result [2]: binds
binding result [3]: binds
Kd (recombinant human TNFR2): ~0.0444 nM
koff (recombinant human TNFR2): 0.000221 s⁻¹
kon (recombinant human TNFR2): 4.98e+06 M⁻¹ s⁻¹
